Assay results from the nanobody polyreactivity screen of Harvey et al. (2022).

Assay: yeast display, Sf9 membrane polyspecificity reagent, FACS + sequencing; frameworks hold sequencing errors
In short: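 Nanobodies from a synthetic yeast display library (Saccharomyces cerevisiae BJ5465), induced 36–48 hours with galactose, were stained 1 hour at 4 °C with 10% biotinylated, detergent-solubilized Sf9 membrane reagent, enriched on streptavidin microbeads, then FACS-sorted. Anti-HA (expression) and streptavidin (reagent binding) fluorescence set low and high (top ~1%) gates. Polyreactivity labels come from the gate of origin. Genes were colony-PCR amplified, MiSeq 2 × 250 sequenced and filtered by CDR length.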

Row | Sequence | polyreactivity (PSR sort gate)
1 | QVQLVESGGGLVQAGGSLRLSCAASGITFFVYAMGWYRQAPGKERELVAAITSGDSTSYADSVKGRFTISRDNAKNTVYLQMNSLKPEDTAVYYCAAEQVTIEDGVYFDFNSWGQGTQVTVSS | low polyreactivity
2 | QVQLVESGGGLVQAGGSLSLTCAASGRILYRYAMGWYRPAPGKERDLVAAISWSGGSTYYADSVKGRFTISRDNAKNTVYLQLYSLKPEDTAVYYCNAVRASRSGGFDYWGQGTQVTVSS | high polyreactivity
3 | QVKLVESGGGLVQAGGSLRLSCAASGFTFGRYAMGWYRQAPGKERELVAAITRRGGSTYYADSVKGRFTISRDNAKNTVYLQMNSLKPEDTAVYYCNKVKQTRTDHDYWGQGTQVTVSS | high polyreactivity
4 | QVQLVESGGGLVQAGGSLRLSCAASGGLFYYNAMGWYRQAPGKERELVAAISGSGGTTYYADSVKGRFTISRDNAKNTVYLQMNSLKPEDTAVYYCAKRPYTVIAYSRYGYWGQGTQVTVSS | high polyreactivity
5 | QVQLVESGGGLVQAGGSLRLSCAASGSTFIGNAMGRYRQAPGKERELVAAITRSGGSTFYADSVKGRFTISRDYAKNTVYLQMNSLKPEDTAVYYCAARTRRGLARYDYWGQGTQVTVSS | high polyreactivity
6 | QVQLVESGVGLVKAGGSLRLSCATSGLILYRYVMGWYRQAAGKERQLVAAISSSGGRTYYADSVKGRFTISRDNAKNTVYLQMNSLKPEDTAVYYCAKRRSDARRGYDYLGQGTQVTVSS | high polyreactivity
7 | QVQLVESGGGIVQAGGSLRLSCAASGITFGRNTMGWYRQAPGKERELVAAIDSGGNTYADSVKGRFTISRDNAKNTVYLQMNSLKPEDTAVYYCAVDGGEFSSYGYWGQGTQVTVSS | low polyreactivity
8 | QVQLVESAGGLVQAGGSLRLSCAASGSTFTLYAMGWYRQAPGKERELVAAISWSGDSTYYADSVKGRFTISRDNAKNTVYLQMNSLKPEDTAVYYCAAENVYGYDYWGQGTQVTESS | high polyreactivity
9 | QVQLVESGGGLVQAGGSLRLSFAASGITFPYYAMGWYRQAPGKEREFVAAISSSGGSTYYADSVKGRFTISRDNAKKTVYLKMHCLKAEDTEVYYCAAGVYGRSSYSKPVLYEYWGQGTQVTVSS | high polyreactivity
10 | QVQLVESVGGLVQAGGSLRLSCAASGFIFGSNAIGWYRQAPGKERELVAAITYSGASTYYADSVKGRFTISRDNAKNTVYLQMNRLKPEDTAVYYCATRYSVFVSGRFNYWGQGTQVTVSS | low polyreactivity
11 | QVQLVESGGGLVQAGGSLRLSCAASGTLSSYAMGWYRQAAGKERELVAALSLSGGSTYADSVKGRFTISRDNAYNTVYLQMNSLKPEDTAVYYCAKDWDVDITWSFSIYNYWGQGTQVTVSS | low polyreactivity
12 | QVQLVESGGGLVQAGGSLRLSCAASGYIFKVNSMGWYRQAPGKERELVADISRNSGSTRYADSVKGRFTISRDNAKNTVYLQMNSLKPDDTAVYYFAADGRYWVKPGSPWDRSRYDYWGQGTQVTVSS | low polyreactivity
13 | QVQLVESGGGLVQAGGSLRISCAASGSTFSYYTMGWYRQAPGKERELVAAISRTGGSTYYADSVKGRFTISRDNAKNTVYLQMNSLKPEDTAVYYCAADWTRGSPGMDYWVQGTQVTVSS | high polyreactivity
14 | RVQLVESGGGLVQAGGRLRLSCAASRFTFIVNPMGWYRQAPGKERELVAAISWNGGSTYYADSVKGRFTISRDNAKNTVYLQMNSLKPEDTAVYYCAVLYRSEYDWGQGTQVTVSS | low polyreactivity
15 | QVQLVESGGGLVQAGGSLRLSCAASGFTFYKNTMGWYRPEPGKERELVAAISSSGSSTYYADSVKGRFRISRDNAKNTVYLLMNSLKPEDTAVYYCAAGRFAYHDDYWGQGTQVTVSS | high polyreactivity
16 | QVQLEESGGGLVQAGGSLRLSCAASGFTFGVYPMGWYRQATGKEREFVADITYSGGSTYYADSVKGRFTISRDNAKNTVYLHMNSLKPEDTAVYYCAAGYVYTWYGEYVVGYDYWGQGTQVTVSS | high polyreactivity
17 | QVQLVESGGGLVQAGGSLRLSCAASGYTFKYYTMGWYRQAPGKESELVAAITRSGGSTYYADSVKGRFTISRDNAKNTVYLQINSLKPEDTAVYYCAARAAYKQPVSFDYWGQGTQVTVSS | high polyreactivity
18 | QVQLVESGGGLVQAGGSLRLSCAASGYIFNPNAMGWYRQAPGKERELVAAITWSGGNTYYADSVKGRFTISRDNAKNTVYLQMNSLKPEDTAVFYCNAEYRWPYWGQWYFKGYDYWGQGTQVTVSS | low polyreactivity
19 | QVQLVESGGVLVQAGGSLRLSCAASGTFVVNDMGWYRQGPGKERELVAALSWSGGSTYYADSVKGRFTISRDNAKNTVYLQMTSLKPEDTAVYYCAADNWWVYPVWYENDYWGQGTQVTVSS | low polyreactivity
20 | QVQLVESGGGLVQAGGSLRLSSAASGFTFDYYAMGWYRQAPGKERELVAAISTSGGSTYYADSVKGRFTISRDNAKNTVYLQMNSLKPEDTAVYYCNVVFYEYSSVSYDYWGQGTQVTVSS | high polyreactivity
21 | QVQLVESGGGLVQAGGSLRLSCAASGRIFGWYAMGWYRQAPGKERELVAAIDGGDDSTYYADSVKGRFTISRDNAKNTVYLQMNSLKPEDTAVYYCAVVGYNWGQGTQVTVSS | low polyreactivity
22 | QVQLVESGGGLVQAGGSLRLSCAASGSIFRYNAMGWDRQAPGKERELVAGITWGGSTYYADSVKGRFTISRDNAKNTVYLQMNSLKPEDTAVYYCAAGRYGDYGYWGQGTQVTVSS | high polyreactivity

Row | Sequence | polyreactivity (PSR sort gate)
23 | QVQLVESGGGLVQAGGSLRLSCAASGSIFWKYAMGWYRQAPGKERELVAAISDGVSTNYADSVKGRFTISRDNAQNTVYLQMNSLKPEDTAVYYCNAETRERDPTREFDYWGQGTQVTVSS | low polyreactivity
24 | QVQLVESGGGLVQAGGSLRLSCAASGFTFIYYAMGWSRQAPGKERELVAAIRWSGGSTYYADSVKGRFTISRDNAKNTVYLQMNSLNPEDTAVYYCAKGGPHRGTGLNDYWGQGTQVTVSS | high polyreactivity
25 | QDQLVESGGGLVQAGGSLRLSCAASGSIIPFYAMGWYRQAPGKERELVAAITYSGGSTFYADSVKGRFTISRDNAKNTVYLQMNSLKPEDTAVYYCNAVWRFGSSKYYYWGQGTQVTVSS | high polyreactivity
26 | QVQLGESGGGLVQAGGSLRLSCAASGFTFYNYAMGWYRQAPGKERELVAAISTSGGSTYYADSVKGRFTISRDNAKNTVYLQMNSLKPEDTAVYYCAAQATAYSYAYYYWGQGTQVTVSS | low polyreactivity
27 | QVQLVESGGGLVQAGGSLRLSCAASGRIFGGYAMGWYRQAPGKERELVAAISSRGGSTYYADSVKGRFTISRDNAKNTVYLQMNSLNPEDTAVYYCARTKYGRYRYGEYDYWGQGTQVTVSS | high polyreactivity
28 | QFQLQESCCGLVQAGGSLRLSCAASGTISYAPQMGWYRQAPGKERELVAGITIGGTTYYADSVKGRFTISRDNAKNTVYLQMNSLSPGDTAVYYCAAHSEQYTPFYYWGQGTQVTVSS | low polyreactivity
29 | QVQLVESGGGLVQAGGSLRLSCAPSGIIFHKYAMGWYRQAPGTDRELVAVFTGRGGSTYYADSVKGRFTISRDFAKNTVYLQMNSLKPEDTAVYYCAAVTKSWRGATWYDYWGQGTQVTVSS | high polyreactivity
30 | QVQLVESGGCLVQAGGSLRLNCAASGGTFVNNDMGWYRQAPGKERELVAAIRSAGTTYYADSVKGRFTISRDNAKNSVYLQMNSLKPVDTAVYYCNADTTGYWSYGFQYYGEDYWGQGTQVTVSS | low polyreactivity
31 | QVQLVESGGGLVQAGGSLRLSCAASGSIFAWYGMGWYRQAPGKERELVAAISTAGSTNYADSVKGRFTISRDNAKNTVYLQMNSLKPEDTAVYDCAKKSSWYYPERFDYWGQGTQVTVSS | low polyreactivity
32 | QVQLVESGGGLVQAGGSLRLSCAASGSIFPSYARGWYRQAPGKERELVAAINWDGGSTFYADSVKGRFTISRDNAKNTVSLQMNSLKPEDTAVYYCAAPDNYGGVGGITFWRMDYWGQGTQVTVSS | low polyreactivity
33 | QVQLVESGGGLVQAGGSLRLSCAASGRIFQRYTMGWYRQAPGKEREFVAAITYSGGSTHYADSVKRRFTISRDNAKYTVYLQMNSLKPEDTAVYSCNARTSVLHDYWGQGTQVTVSS | low polyreactivity
34 | QVQLVESGGGLVQAGGSLRLSCAASGFIILIYAMGWYRQAPGKERELVATIRYSGGRTYYADSVKGRFTISRDNAKNTVFLQMNSLKPEDTAVDYCAADGYPTLYDYWGQGTQVTVSS | high polyreactivity
35 | QVQLEESGGGLVQAGGSLRLSCAASGRTFVFNAMGWYRQAPGTERELVASINSRVGSTYYADSVKGRFTISRDNAKNTVYLQMNSLKPEDTAVYYCAARSYSSYYYWGQGTQVTVSS | high polyreactivity
36 | QVQLVESGGGLVQAGGSLRLSCAASGSNFGSNAMGWYRQAPGKERELVATISGRGGSTYYADSVKGRFTISRDNAKNTVYLQMNSLKPEDTAVYYCAKDRRTWRYGQVFSPYYYWGQGTQVTVSS | low polyreactivity
37 | QVQLVESGGGLVQAGGSLRLSCAASGSISSGYTMGWYRQAPGKERELVASIRSGGSTYYADSVKGRFTISRDNAKNTVYLQMNSLKPEDTAVYYCAARFFYRYSWGRTRGYDYWGQGTQVTVSS | high polyreactivity
38 | QVQLVESGGGLVHAGGSLRLSCAASGSTFGRYTMGWYRQAPGKERELVAAISYSSGRTYYADSVKGRFTISRDNGKNTVYLQMNSLKAEDSAVYYCAAVSRGRGEYDYWGQGTQVTVSS | high polyreactivity
39 | QVQLVESGGGLVQAGGSLRLSCAASGRLFYLNAMGWYRQAPGKERDLVAAISGSTGSTYYADSVKGRITISRDNAMNPVYLHMTSLKPVDTAVYYSNAGGVYVEFNYWGQGTQVTVSS | low polyreactivity
40 | QVQLVESGGGLVQAGGSLRLSCAASGIILYGYSMGWYRQAPGKERELVAAISWDGGSTYYADSVKGRFTISRDNAKNTVYLQMISLIPEDTAVYYCNALGGSEYDYWGQGTQVTVSS | low polyreactivity
41 | QVQLVESGGGLVQAGGSLRLSCAASGSIFDINAMGWYRQAPGKEREFVAAISWSGGTTYYADSVKGRFTISRDNAKNPVYLQMNSLKPEDTAVYYCAALSYVKRRQSYGYWGLGTQVTVSS | high polyreactivity
42 | QVQLVESGGGLVQAGGSLRLSCAASGRIFVINAMGWYRQAPGKERELVAAISQSGGSTYYADSVKGRFTISRDNAKNTVYLQMNSLKPEDTAVYYCNALSNVPYDYWGQGTQVTVSS | low polyreactivity
43 | QVQLVESGGGLVQAGGSLRLSCAASGFIFSVYAMGWYRQAPGTEREFVAAIRWSGGSTYYADSVKGRFTISRDNAKNTVYLQMNSLKPEDTAVYYCAARARDHYGYWGQGTQVTVSS | high polyreactivity
